{"source": "paper PMC4856543", "key": {"[1]": {"molecular_target": "single-chain gp120BaL-sCD4 complex (full-length single-chain) (HIV-1 isolate BaL | not stated)", "test": "ITC; iTC200, 25°C, A32 IgG with FLSC or ID2; heats of dilution subtracted"}, "[2]": {"molecular_target": "ID2 (inner domain of gp120 stabilized by the C65-C115 disulfide, isolate 93TH057), from 293 cells (HIV-1 clade A/E isolate 93TH057)", "test": "ITC; iTC200, 25°C, A32 IgG with FLSC or ID2; heats of dilution subtracted"}, "[3]": {"molecular_target": "single-chain gp120BaL-sCD4 complex (full-length single-chain) (HIV-1 isolate BaL | not stated)", "test": "SPR; Biacore T-100, 25°C, 1:1 Langmuir model"}, "[4]": {"molecular_target": "ID1 (independent inner domain of gp120, first design, isolate 93TH057) (HIV-1 clade A/E isolate 93TH057)", "test": "SPR; Biacore T-100, 25°C, 1:1 Langmuir model"}, "[5]": {"molecular_target": "monomeric full-length BaL gp120 (HIV-1 isolate BaL)", "test": "SPR; Biacore T-100, 25°C, 1:1 Langmuir model"}, "[6]": {"molecular_target": "ID2, stabilized inner domain of HIV-1 gp120 of clade A/E isolate 93TH057 (HIV-1 clade A/E isolate 93TH057)", "test": "SPR; antibody immobilised, ID2 passed over at 0-200 nM; Biacore T-100, 25°C; 1:1 Langmuir model, BIAevaluation software; two experiments"}}}
{"substance": "mAb A32 (antibody)", "values": [{"measurement": "Kd", "setting": "[1]", "value": 11.5, "unit": "nM"}, {"measurement": "dH", "setting": "[1]", "value": -3.15, "unit": "kcal/mol"}, {"measurement": "Kd", "setting": "[2]", "value": 9, "unit": "nM"}, {"measurement": "dH", "setting": "[2]", "value": -2.55, "unit": "kcal/mol"}, {"measurement": "Kd", "setting": "[3]", "value": 0.23, "unit": "nM"}, {"measurement": "koff", "setting": "[3]", "value": 0.000102, "unit": "s⁻¹"}, {"measurement": "kon", "setting": "[3]", "value": 443000, "unit": "M⁻¹ s⁻¹"}, {"measurement": "Kd", "setting": "[4]", "value": 9.3, "unit": "nM"}, {"measurement": "koff", "setting": "[4]", "value": 0.000785, "unit": "s⁻¹"}, {"measurement": "kon", "setting": "[4]", "value": 85000, "unit": "M⁻¹ s⁻¹"}, {"measurement": "Kd", "setting": "[5]", "value": 3.2, "unit": "nM"}, {"measurement": "koff", "setting": "[5]", "value": 0.000437, "unit": "s⁻¹"}, {"measurement": "kon", "setting": "[5]", "value": 139000, "unit": "M⁻¹ s⁻¹"}, {"measurement": "Kd", "setting": "[6]", "value": 0.17, "unit": "nM"}, {"measurement": "koff", "setting": "[6]", "value": 0.000275, "unit": "s⁻¹"}, {"measurement": "kon", "setting": "[6]", "value": "1.65e+06", "unit": "M⁻¹ s⁻¹"}]}
